The labels stand for the following.
B1: Serine protease HTRA2, mitochondrial (Homo sapiens), O43464 (parent)
chain: MAAPRAGRGAGWSLRAWRALGGIRWGRRPRLTPDLRALLTSGTSDPRARVTYGTPSLWARLSVGVTEPRACLTSGTPGPRAQLTAVTPDTRTREASENSGTRSRAWLAVALGAGGAVLLLLWGGGRGPPAVLAAVPSPPPASPRSQYNFIADVVEKTAPAVVYIEILDRHPFLGREVPISNGSGFVVAADGLIVTNAHVVADRRRVRVRLLSGDTYEAVVTAVDPVADIATLRIQTKEPLPTLPLGRSADVRQGEFVVAMGSPFALQNTITSGIVSSAQRPARDLGLPQTNVEYIQTDAAIDFGNSGGPLVNLDGEVIGVNTMKVTAGISFAIPSDRLREFLHRGEKKNSSSGISGSQRRYIGVMMLTLSPSILAELQLREPSFPDVQHGVLIHKVILGSPAHRAGLRPGDVILAIGEQMVQNAEDVYEAVRTQSQLAVQIRRGRETLTLYVTPEVTE

In the experiment the parent is B1. Particulars: with xiap_human XIAP.
Regarding A134M, the “effect of a mutation on the interaction” value was “disrupting interaction”.

The values above are taken from IntAct's records for PubMed 11583623.
